These results are taken from publication PMC12509985, “Phosphoglycerate dehydrogenase interacts with and inhibits the protein kinase TAK1 to mitigate septic shock” (The Journal of Biological Chemistry, 2025).

Several values for one entry are separate records, joined by “and”; a condition that tells them apart may be missing. Equal values may be shown once.

Usually stoichiometry N stands for a count of units in the complex or per binding partner.

Series [1] deals with the molecule itself. Description: cross-linking; lysate of PHGDH-KO PMs transfected with PHGDH or PHGDH (V425M) for 48 h; 0.25 mM cross-linker (DSS in the legend, dimethyl suberimidate in the methods), room temperature 10 min; Western blot. (In western blotting, separated proteins are transferred to a membrane and probed.)
Series [2] deals with the molecule itself. Description: cross-linking; lysate of WT PMs (native lysis buffer), untreated or pretreated with 15 μM CBR-5884 for 6 h; 0.25 mM cross-linker (DSS in the legend, dimethyl suberimidate in the methods), room temperature 10 min; Western blot of PHGDH.

B1: PHGDH-Flag, expressed in PHGDH-KO peritoneal macrophages (enzyme, UniProt Q61753 1-533, looked up)
chain: MAFANLRKVLISDSLDPCCRKILQDGGLQVVEKQNLSKEELIAELQDCEGLIVRSATKVTADVINAAEKLQVVGRAGTGVDNVDLEAATRKGILVMNTPNGNSLSAAELTCGMIMCLARQIPQATASMKDGKWDRKKFMGTELNGKTLGILGLGRIGREVATRMQSFGMKTVGYDPIISPEVAASFGVQQLPLEEIWPLCDFITVHTPLLPSTTGLLNDSTFAQCKKGVRVVNCARGGIVDEGALLRALQSGQCAGAALDVFTEEPPRDRALVDHENVISCPHLGASTKEAQSRCGEEIAVQFVDMVKGKSLTGVVNAQALTSAFSPHTKPWIGLAEAMGTLMHAWAGSPKGTIQVVTQGTSLKNAGTCLSPAVIVGLLREASKQADVNLVNAKLLVKEAGLNVTTSHNPGVPGEQGSGECLLTVALAGAPYQAVGLVQGTTPMLQMLNGAVFRPEVPLRRGQPLLVFRAQPSDPGMLPTMIGLLAEAGVQLLSYQTSMVSDGEPWHVMGLSSLLPSLETWKQHVLEAFQFCF
notes: phosphoglycerate dehydrogenase (PHGDH); also called WT PHGDH; PHGDH-HA (methods); source: PHGDH-KO mouse peritoneal macrophages, transfected 48 h, in lysate
On to B1, for which the “stoichiometry N” value in series [1] came out at 4.

B2: PHGDH, endogenous in mouse peritoneal macrophages (enzyme, UniProt Q61753 1-533, looked up)
chain: MAFANLRKVLISDSLDPCCRKILQDGGLQVVEKQNLSKEELIAELQDCEGLIVRSATKVTADVINAAEKLQVVGRAGTGVDNVDLEAATRKGILVMNTPNGNSLSAAELTCGMIMCLARQIPQATASMKDGKWDRKKFMGTELNGKTLGILGLGRIGREVATRMQSFGMKTVGYDPIISPEVAASFGVQQLPLEEIWPLCDFITVHTPLLPSTTGLLNDSTFAQCKKGVRVVNCARGGIVDEGALLRALQSGQCAGAALDVFTEEPPRDRALVDHENVISCPHLGASTKEAQSRCGEEIAVQFVDMVKGKSLTGVVNAQALTSAFSPHTKPWIGLAEAMGTLMHAWAGSPKGTIQVVTQGTSLKNAGTCLSPAVIVGLLREASKQADVNLVNAKLLVKEAGLNVTTSHNPGVPGEQGSGECLLTVALAGAPYQAVGLVQGTTPMLQMLNGAVFRPEVPLRRGQPLLVFRAQPSDPGMLPTMIGLLAEAGVQLLSYQTSMVSDGEPWHVMGLSSLLPSLETWKQHVLEAFQFCF
notes: phosphoglycerate dehydrogenase (PHGDH), endogenous in mouse peritoneal macrophages; Seen as tetramers and dimers after cross-linking of the lysate; also called endogenous PHGDH; source: endogenous, mouse peritoneal macrophage (PM) extract
For the protein B2, in series [2], the “stoichiometry N” value was 4 and 2.

B3: PHGDH (V425M)-Flag, expressed in PHGDH-KO peritoneal macrophages (enzyme, UniProt Q61753 1-533, looked up)
chain: MAFANLRKVLISDSLDPCCRKILQDGGLQVVEKQNLSKEELIAELQDCEGLIVRSATKVTADVINAAEKLQVVGRAGTGVDNVDLEAATRKGILVMNTPNGNSLSAAELTCGMIMCLARQIPQATASMKDGKWDRKKFMGTELNGKTLGILGLGRIGREVATRMQSFGMKTVGYDPIISPEVAASFGVQQLPLEEIWPLCDFITVHTPLLPSTTGLLNDSTFAQCKKGVRVVNCARGGIVDEGALLRALQSGQCAGAALDVFTEEPPRDRALVDHENVISCPHLGASTKEAQSRCGEEIAVQFVDMVKGKSLTGVVNAQALTSAFSPHTKPWIGLAEAMGTLMHAWAGSPKGTIQVVTQGTSLKNAGTCLSPAVIVGLLREASKQADVNLVNAKLLVKEAGLNVTTSHNPGVPGEQGSGECLLTMALAGAPYQAVGLVQGTTPMLQMLNGAVFRPEVPLRRGQPLLVFRAQPSDPGMLPTMIGLLAEAGVQLLSYQTSMVSDGEPWHVMGLSSLLPSLETWKQHVLEAFQFCF
notes: phosphoglycerate dehydrogenase (PHGDH) with V425M made by site-directed mutagenesis; also called PHGDH (V425M)-HA (methods); source: PHGDH-KO mouse peritoneal macrophages, transfected 48 h, in lysate
In the case of B3, the “stoichiometry N” value in series [1] was 4 and 2.
